Data as given in paper PMC3970758, “A conserved MCM single-stranded DNA binding element is essential for replication initiation”.
Each block holds one molecule with its values, some of them ahead of it.

How the values were obtained:
[1] = molecular target: Pyrococcus furiosus MCM N-terminal domain (PfMCM 1-256) (Pyrococcus furiosus) (UniProt Q8U3I4); assay: crystal structure; PfMCMN without DNA; sitting drop, 18°C, 0.2 M sodium malonate pH 7.0, 20% PEG 3350; 2.65 Å; one hexamer in the asymmetric unit
[2] = molecular target: Pyrococcus furiosus MCM N-terminal domain (PfMCM 1-256) (Pyrococcus furiosus) (UniProt Q8U3I4); assay: crystal structure; PfMCMN with 30-mer poly-dT ssDNA; hanging drop, 18°C, 50 mM MES pH 6.0, 10 mM Mg(OAc)2, 28.5% PEG 3350; 3.2 Å; two hexamers in the asymmetric unit
PfMCMN WT [3] = molecular target: T1, PfMCMN WT (Pyrococcus furiosus, UniProt Q8U3I4 1-256); assay: EMSA; 5 mM Mg2+; EMSA: 20 mM HEPES pH 7.6, 200 mM NaCl, 5 mM MgCl2, 5 mM bME, 25 C, 30 min, 160 nM DNA; 4-20% TBE PAGE; conditions: protein: recombinant, tags: His6-SUMO removed by Ulp1, in-frame BamHI site may leave extra N-terminal residues
T1 sequence: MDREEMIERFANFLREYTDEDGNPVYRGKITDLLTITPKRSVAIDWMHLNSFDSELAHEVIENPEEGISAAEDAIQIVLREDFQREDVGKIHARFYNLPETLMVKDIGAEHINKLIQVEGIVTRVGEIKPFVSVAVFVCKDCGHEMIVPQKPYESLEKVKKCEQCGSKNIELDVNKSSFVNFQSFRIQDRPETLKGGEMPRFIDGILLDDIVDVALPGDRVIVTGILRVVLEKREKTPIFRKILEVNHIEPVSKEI

PfMCMN WT [4] = molecular target: T1, PfMCMN WT; assay: crystal structure (3.2 A); 10 mM Mg(OAc)2 in well solution; Zn-binding subdomain; EMSA: 20 mM HEPES pH 7.6, 200 mM NaCl, 5 mM MgCl2, 5 mM bME, 25 C, 30 min, 160 nM DNA; 4-20% TBE PAGE; conditions: protein: recombinant; tags: His6-SUMO removed by Ulp1; in-frame BamHI site may leave extra N-terminal residues

stoichiometry N [1]: 6
stoichiometry N [2]: 6
Molecule: Pyrococcus furiosus MCM N-terminal domain (PfMCM 1-256) (from UniProt Q8U3I4 1-256) (domain or fragment)

B1: T40 ssDNA (ssDNA)
DNA: TTTTTTTTTTTTTTTTTTTTTTTTTTTTTTTTTTTTTTTT
apparent K (half saturation) (PfMCMN WT [3]; label: 5'-fluorescein): 6.8 µM

B2: 26-mer dsDNA (dsDNA)
DNA 1: ATGGCAGATCTCAATTGGATATCGGC
DNA 2: GCCGATATCCAATTGAGATCTGCCAT
apparent K (half saturation) (PfMCMN WT [3]; label: 5'-fluorescein on strand 1, blunt): 7 µM

B3: poly-dT 30-mer (ssDNA)
DNA: TTTTTTTTTTTTTTTTTTTTTTTTTTTTTT
binding result (PfMCMN WT [4]): binds
